Assay results as given in patent publication US20120214173A1, “Methods of Identifying Modulators of an Ehd Polypeptide” (priority 2007, published 2012).
Substitutions are numbered along the chain they refer to. Names and notes keep the numbering of the source. “Also recorded” adds a separate entry of the source.

T1: EHD2 (Mus musculus, UniProt Q8BH64)
T1 construct: Mouse EHD2 full-length protein and all mutants were expressed as N-terminal His-fusions followed by a PreScission cleavage site; His (N, cleaved yes); made in house; host or cells: Escherichia coli BL21 DE3 Rosetta
T1 sequence (Q8BH64 1-543): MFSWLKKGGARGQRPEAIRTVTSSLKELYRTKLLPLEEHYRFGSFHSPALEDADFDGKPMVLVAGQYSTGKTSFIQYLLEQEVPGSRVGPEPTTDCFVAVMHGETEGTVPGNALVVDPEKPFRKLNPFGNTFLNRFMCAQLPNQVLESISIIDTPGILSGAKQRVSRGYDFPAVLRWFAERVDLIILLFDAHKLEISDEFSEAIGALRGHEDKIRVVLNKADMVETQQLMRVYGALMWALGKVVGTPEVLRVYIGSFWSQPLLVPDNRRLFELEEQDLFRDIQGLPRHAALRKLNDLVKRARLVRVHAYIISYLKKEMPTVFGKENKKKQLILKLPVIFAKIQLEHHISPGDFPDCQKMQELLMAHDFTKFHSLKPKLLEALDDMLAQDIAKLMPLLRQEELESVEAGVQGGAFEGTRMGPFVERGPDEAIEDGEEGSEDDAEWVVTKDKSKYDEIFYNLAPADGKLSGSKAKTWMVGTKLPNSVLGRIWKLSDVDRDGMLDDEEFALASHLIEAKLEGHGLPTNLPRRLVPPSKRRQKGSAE

B1: EHD2 double mutant of the two side-site xPF motifs (F122A/F128A) (protein)
chain: T1 sequence (Q8BH64 1-543) with F122A, F128A
B2: T72A: EHD2 mutant in the phosphate binding (P-)loop, nucleotide-free (protein, UniProt Q8BH64 1-543, looked up, variant T72A)
EH domain-containing protein 2: T1 sequence (Q8BH64 1-543) with T72A
B3: F322A: EHD2 membrane-binding site mutant (protein, UniProt Q8BH64 1-543, looked up, variant F322A)
EH domain-containing protein 2: T1 sequence (Q8BH64 1-543) with F322A
B4: K328D: EHD2 polybasic cluster mutant (protein, UniProt Q8BH64 1-543, looked up, variant K328D)
EH domain-containing protein 2: T1 sequence (Q8BH64 1-543) with K328D
B5: I157Q: EHD2 mutant with re-introduced catalytic glutamine in the active site (protein, UniProt Q8BH64 1-543, looked up, variant I157Q)
EH domain-containing protein 2: T1 sequence (Q8BH64 1-543) with I157Q

Legend:
[1] = target: T1, EHD2; assay: Multiple turnover ATPase assay (nucleotide hydrolysis by HPLC) with or without Folch liposomes; type: biochemical; conditions: for kobs stimulated ATPase reaction: presence of 1 mg/ml Folch (or PS) liposomes; for membrane-stimulated ATPase activity (in words) / decrease in the stimulated ATPase rate versus wt: presence of Folch liposomes
Description: (§1) Amino acid numbering corresponds to mouse EHD2. b, EHD2 binds to adenine nucleotides, as determined by ITC. For clarity, ΔΔH=ΔHn−ΔH1 is plotted. […] Images were acquired close to the basal cell surface. f, Nucleotide hydrolysis was measured by HPLC in the absence (empty symbols) or presence of Folch liposomes (filled symbols). Data represent mean and standard deviation for two (intrinisic reactions) or three (stimulated reactions) independent experiments.
(§2) ITC measurements were performed at 10° C. in 20 mM HEPES (pH 7.5), 300 mM NaCl, 2 mM MgCl2. Liposome binding assays were performed as described previously (www.endocytosis.org). Multiple turnover ATPase assays were performed in 20 mM HEPES (pH 7.5), 135 mM NaCl, 15 mM KCl, 1 mM MgCl2 at 30° C. with 10 μM EHD2 (or mutants) as enzyme and 100 μM ATP as substrate, in the absence or presence of 1 mg/ml Folch liposomes (Sigma-Aldrich).
(§3) Reactions were started by the addition of the protein to the final reaction mix and nucleotide hydrolysis was followed using standard HPLC measurement^27. Initial rates were determined by applying a linear fit to data points up to 40% nucleotide hydrolysis. For electron microscopic studies, 2.5 μM EHD2 in 20 mM HEPES (pH 7.5), 150 mM NaCl, 1 mM MgCl2 was incubated for 15 min at 25° C. in the presence of 1 mM nucleotide and 0.05 mg/ml (final concentration) of the indicated liposomes. Samples were spotted on carbon-coated copper grids (Canemco and Marivac) and negatively stained with 2% uranyl acetate.
We next monitored the effect of membrane-binding on the ATPase activity of. EHD2 under multiple-turnover conditions (10-fold excess of ATP over EHD2), in the presence and absence of Folch liposoines (FIG. 1f). The intrinsic/background ATPase activity is extremely slow (kobs=0.7 h^−1) but is stimulated 8-fold in the presence of Folch or PS liposomes (kobs=5.6 h^−1).

[2] = Liposome co-sedimentation (membrane binding) assay; conditions: Folch / PS liposomes
Description: as §1
(§4) Nucleotide hydrolysis was measured as described in FIG. 1f. In vitro tubulation activity of PS liposomes was analysed as described in FIG. 1d. f, EGFP-tagged mutants were over-expressed in HeLa cells. […] For each construct, three independent experiments with ≈50 cells/experiments were analysed.
as §2
Mouse full-length EHD2 was expressed in bacteria and purified to homogeneity (FIG. 5). The purified protein was nucleotide-free as judged by HPLC analysis. […] It was previously reported that EHDs—despite having a predicted G-domain—bind to adenine nucleotides^15. […] We still refer to this domain as a G-domain because the sequence and fold (see below) are clearly similar to other G-domains. […] Using synthetic liposomes containing various different phosphatidyl-inositols (PI) (FIG. 1c) we observed best binding to liposomes containing PI(4,5)bisphosphate (PIP2).

[3] = Negative stain EM of liposome tubulation/oligomerisation; conditions: 2.5 μM protein, PS liposomes
Description: as §1
EHD2 was incubated with the indicated liposomes in the presence and absence of nucleotides and analysed by EM as described in Methods. a, EHD2 deformed PS liposomes into tubular networks, here in the presence of ATP-γ-S. b, Enlarged views of the indicated area in a. Note the presence of regularly spaced EHD2 rings (some are indicated with arrows). This even spacing may be due to the curvature stress generated by an EHD2 ring along the axis of the lipid tubule which might disfavour binding of the next ring in the direct vicinity (see below). c, Some of the lipid tubules (especially at higher protein concentration) were tightly packed with EHD2 oligomeric rings. d,e In the presence of ADP and in the absence of nucleotide (f,g), EHD2 also tubulated PS liposomes and formed ring-like structures around the tubules. e,g are enlarged views of the indicated areas in d and f, respectively.
as §3
Nucleotide-independence of liposome tubulation in vitro is also observed for dynamin^16. No noticeable tubule fission or alteration in tubule diameter was found for EHD2 in the presence of ATP. […] Folch liposomes were also tabulated by EHD2. However, with synthetic liposomes containing only 2.5% PIP2 and in the absence of PS, the amount of EHD binding was reduced, and in this less favourable binding condition we only observed tubulation in the presence of ATP-γ-S and ADP but not in the absence of nucleotides (FIG. 7).

[4] = tested on: HeLa cells; assay: Over-expression of EGFP-tagged EHD2 and mutants in HeLa cells (confocal / live imaging); type: cell-based; conditions: for distribution of EGFP-tagged protein over-expressed in HeLa cells: 24 h after transfection, fixed; for dynamics of tubules and puncta by EPI-fluorescence live imaging: over-expressed 24 h, imaged approximately 30 min
Description: as §1, §4
Ultracentrifugation. Sedimentation velocity experiments were performed in a Beckman Optima XLA ultracentrifuge, using an An-60Ti rotor. Centrifugation was at 50,000 rev×min and 5° C. at an EHD2 concentration of 15 μM, with scans as fast as possible (˜1.5 min intervals). The data were analysed using DCDT+ v.2^44,45, with the partial specific volume for the protein (from the amino acid composition) and solvent density and viscosity calculated using Sednterp^46. Selected scans (at equal, ˜15 min intervals), and of g(s20,w) (the amount of material sedimenting between s20,w and (s20,w+δs)) and also the residuals for fitting the data with DCDT+, were plotted with the program profit v.5.6.7 (Quantum soft, Switzerland). Cell biology. N-terminal EGFP-tagged EHD2 and all mutants were over-expressed in HeLa cells from the pEGFP-C3 vector (Clontech). HeLa cells were grown as per ECACC guidelines with 10% fetal bovine serum and transfected using Genejuice (Novagen) for transient protein expression. 24 h after transfection, cells were fixed for 10 min at 37° C. in 3% paraformaldehyde and mounted. All confocal images were taken sequentially using a BioRad Radiance system and LaserSharp software (Biorad). For real-time microscopy, transfected cells on glass-bottom Petri dishes (WillCo Wells BV, Amsterdam) were washed with 25 mM HEPES (pH 7.5), 125 mM NaCl, 5 mM KCl, 10 mM D-glucose, 1 mM MgCl2, 2 mM CaCl), and epifluorescence images were taken using an Olympus IX70 microscope (Southhall, UK) and Argon laser (Melles Griot, Carlsbad, Calif.) with a Princeton instruments (Trenton, N.J.) cooled I-PentaMAX camera with MetaMorph software (Universal imaging).
EHD2 wild-type was over-expressed in HeLa cells for 24 h and imaged by EPI-fluorescence for approximately 30 min.
EHD2 T94A was over-expressed in HeLa cells for 24 h and imaged by EPI-fluorescence for approximately 30 min. […] EHD2 I157Q was over-expressed in HeLa cells for 24 h and imaged by EPI-fluorescence for approximately 30 min.

[5] = target: Q8BH64
[6] = 10 μM protein, 100 μM ATP, 30° C.

Row | Molecule | kobs intrinsic/background ATPase activity ([1]; 10 μM protein, 100 μM ATP, 30° C., absence of liposomes) | kobs stimulated ATPase reaction [1, 6] | kobs stimulated ATPase reaction ([1]; 10 μM protein, 100 μM ATP, 30° C., listed as wt) | stimulation of intrinsic ATP reaction by liposomes ([1]; Folch or PS liposomes versus no liposomes) | stimulated nucleotide hydrolysis slower than dynamin ([1]; stimulated condition, versus dynamin GTP hydrolysis) | binding to liposomes (co-sedimentation) [2] | liposome tubulation / oligomerisation by EM [3] | distribution of EGFP-tagged protein over-expressed in HeLa cells [4] | dynamics of tubules and puncta by EPI-fluorescence live imaging [4] | membrane-stimulated ATPase activity [5] | membrane-stimulated ATPase activity (in words) [1] | membrane-stimulated ATPase activity (in words) ([1]; listed as mutation of the side site xPFs motif) | decrease in the stimulated ATPase rate versus wt [1] | intrinsic/basal ATPase activity (in words) ([1]; absence of membranes)
1 | EHD2: mouse full-length EHD2 expressed in bacteria; EGFP-tagged in HeLa cells | 0.7 h⁻¹ | 5.6 h⁻¹ | 5.4 h⁻¹ | 8 fold | 600 fold | efficient binding | deforms PS liposomes in a nucleotide-independent manner into 20 nm-diameter tubules | localised to puncta and tubular networks close to the cell surface; also recorded: marked punctate and tubular structures | Some of the tubules and puncta are dynamic |  |  |  |  | 
2 | B1 |  |  |  |  |  |  | did not find any regular oligomers on liposomes |  |  | did not show any membrane-stimulated ATPase activity | did not show any membrane-stimulated ATPase activity | completely prevented the membrane-stimulated ATPase reaction |  | 
3 | B2 |  |  |  |  |  | bound to Folch liposomes |  | cytoplasmic distribution |  |  | did not show stimulation of ATP hydrolysis; also recorded: did not show membrane-stimulated ATPase activity |  |  | 
4 | B3 |  | 3.0 h⁻¹ |  |  |  | bound less to liposomes |  | completely cytoplasmic distribution |  |  | reduced ATPase stimulation |  | 40% | 
5 | B4 |  | 1.6 h⁻¹ |  |  |  | bound less to liposomes |  | completely cytoplasmic distribution |  |  | reduced ATPase stimulation |  | 75% | 
6 | B5 |  |  |  |  |  |  | tubulated liposomes | exclusively punctate staining; also recorded: labelled only very short tubules and puncta | No tubules can be found and the puncta are mostly motile |  | not further stimulated by membranes |  |  | hydrolysed ATP faster than wild-type
